From US20090169520A1, “Compounds, Pharmaceutical Compositions and Therapeutic Methods of Preventing and Treating Diseases and Disorders Associated With Amyloid Fibril Formation” (YISSUM RESEARCH DEVELOPMENT COMPANY OF THE HEBREW …, priority 2005, published 2009)
Marks after values point to notes of the source that are not given here.

B1: BChE: Purified human BChE from human serum (Sigma) (protein, listed as Homo sapiens)
chain: MHSKVTIICIRFLFWFLLLCMLIGKSHTEDDIIIATKNGKVRGMNLTVFGGTVTAFLGIPYAQPPLGRLRFKKPQSLTKWSDIWNATKYANSCCQNIDQSFPGFHGSEMWNPNTDLSEDCLYLNVWIPAPKPKNATVLIWIYGGGFQTGTSSLHVYDGKFLARVERVIVVSMNYRVGALGFLALPGNPEAPGNMGLFDQQLALQWVQKNIAAFGGNPKSVTLFGESAGAASVSLHLLSPGSHSLFTRAILQSGSFNAPWAVTSLYEARNRTLNLAKLTGCSRENETEIIKCLRNKDPQEILLNEAFVVPYGTPLSVNFGPTVDGDFLTDMPDILLELGQFKKTQILVGVNKDEGTAFLVYGAPGFSKDNNSIITRKEFQEGLKIFFPGVSEFGKESILFHYTDWVDDQRPENYREALGDVVGDYNFICPALEFTKKFSEWGNNAFFYYFEHRSSKLPWPEWMGVMHGYEIEFVFGLPLERRDNYTKAEEILSRSIVKRWANFAKYGNPNETQNNSTSWPVFKSTEQKYLTLNTESTRIMTKLRAQQCRFWTSFFPKVLEMTGNIDEAEWEWKAGFHRWNNYMMDWKNQFNDYTSKKESCVGL
B2: AChE-S: recombinant human ACHE-S, prepared from an ACHE cDNA clone (Sigma) (protein, listed as Homo sapiens)
chain: MRPPQCLLHTPSLASPLLLLLLWLLGGGVGAEGREDAELLVTVRGGRLRGIRLKTPGGPVSAFLGIPFAEPPMGPRRFLPPEPKQPWSGVVDATTFQSVCYQYVDTLYPGFEGTEMWNPNRELSEDCLYLNVWTPYPRPTSPTPVLVWIYGGGFYSGASSLDVYDGRFLVQAERTVLVSMNYRVGAFGFLALPGSREAPGNVGLLDQRLALQWVQENVAAFGGDPTSVTLFGESAGAASVGMHLLSPPSRGLFHRAVLQSGAPNGPWATVGMGEARRRATQLAHLVGCPPGGTGGNDTELVACLRTRPAQVLVNHEWHVLPQESVFRFSFVPVVDGDFLSDTPEALINAGDFHGLQVLVGVVKDEGSYFLVYGAPGFSKDNESLISRAEFLAGVRVGVPQVSDLAAEAVVLHYTDWLHPEDPARLREALSDVVGDHNVVCPVAQLAGRLAAQGARVYAYVFEHRASTLSWPLWMGVPHGYEIEFIFGIPLDPSRNYTAEEKIFAQRLMRYWANFARTGDPNEPRDPKAPQWPPYTAGAQQYVSLDLRPLEVRRGLRAQACAFWNRFLPKLLSATDTLDEAERQWKAEFHRWSSYMVHWKNQFDHYSKQDRCSDL
B3: ASP63: synthetic AChE-S C-terminal peptide, mimics residues 548-610 in hAChE (peptide)
chain: PLEVRRGLRAQACAFWNRFLPKLLSATDTLDEAERQWKAEFHRWSSYMVHWKNQFDHYSKQDR
modifications: ASP63 Synthetic peptide
notes: synthetic AChE-S C-terminal peptide, mimics residues 548-610 in hAChE
B4: BChE K variant: BChE variant with a single C-terminal substitution (A539T) (protein, UniProt P06276 29-602, looked up, variant A539T)
Cholinesterase: EDDIIIATKNGKVRGMNLTVFGGTVTAFLGIPYAQPPLGRLRFKKPQSLTKWSDIWNATKYANSCCQNIDQSFPGFHGSEMWNPNTDLSEDCLYLNVWIPAPKPKNATVLIWIYGGGFQTGTSSLHVYDGKFLARVERVIVVSMNYRVGALGFLALPGNPEAPGNMGLFDQQLALQWVQKNIAAFGGNPKSVTLFGESAGAASVSLHLLSPGSHSLFTRAILQSGSFNAPWAVTSLYEARNRTLNLAKLTGCSRENETEIIKCLRNKDPQEILLNEAFVVPYGTPLSVNFGPTVDGDFLTDMPDILLELGQFKKTQILVGVNKDEGTAFLVYGAPGFSKDNNSIITRKEFQEGLKIFFPGVSEFGKESILFHYTDWVDDQRPENYREALGDVVGDYNFICPALEFTKKFSEWGNNAFFYYFEHRSSKLPWPEWMGVMHGYEIEFVFGLPLERRDNYTKAEEILSRSIVKRWANFAKYGNPNETQNNSTSWPVFKSTEQKYLTLNTESTRIMTKLRAQQCRFWTSFFPKVLEMTGNIDETEWEWKAGFHRWNNYMMDWKNQFNDYTSKKESCVGL
B5: hRBC AChE: human erythrocytes ACHE compared with serum BChE in Table 8 (protein)
chain: EGREDAELLVTVRGGRLRGIRLKTPGGPVSAFLGIPFAEPPMGPRRFLPPEPKQPWSGVVDATTFQSVCYQYVDTLYPGFEGTEMWNPNRELSEDCLYLNVWTPYPRPTSPTPVLVWIYGGGFYSGASSLDVYDGRFLVQAERTVLVSMNYRVGAFGFLALPGSREAPGNVGLLDQRLALQWVQENVAAFGGDPTSVTLFGESAGAASVGMHLLSPPSRGLFHRAVLQSGAPNGPWATVGMGEARRRATQLAHLVGCPPGGTGGNDTELVACLRTRPAQVLVNHEWHVLPQESVFRFSFVPVVDGDFLSDTPEALINAGDFHGLQVLVGVVKDEGSYFLVYGAPGFSKDNESLISRAEFLAGVRVGVPQVSDLAAEAVVLHYTDWLHPEDPARLREALSDVVGDHNVVCPVAQLAGRLAAQGARVYAYVFEHRASTLSWPLWMGVPHGYEIEFIFGIPLDPSRNYTAEEKIFAQRLMRYWANFARTGDPNEPRDPKAPQWPPYTAGAQQYVSLDLRPLEVRRGLRAQACAFWNRFLPKLLSATDTLDEAERQWKAEFHRWSSYMVHWKNQFDHYSKQDRCSDL

Assays:
Aβ (1-40) peptide = target: T1, Aβ (1-40) peptide (Homo sapiens, UniProt P05067); experiment: In vitro formation of amyloid fibril from Aβ (1-40), Thioflavin T fluorescence; assay type: biochemical; conditions: for effect on Aβ fibril formation (in words): 33 μM Aβ; for Lag (fold change) / Rate (fold change): relative to No addition, asterisk = statistically significant
T1 construct: synthetic Aβ (1-40) peptide; purchased Biosource, Camarillo, Calif., USA; host or cells: chemical synthesis
T1 sequence (P05067 672-711 limits assumed): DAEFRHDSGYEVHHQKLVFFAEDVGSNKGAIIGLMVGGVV
Text: In vitro formation of amyloidfibril—In vitro formation of amyloid fibril was in the presence of the synthetic Aβ (1-40) peptide (Biosource, Camarillo, Calif., USA) as a precursor. The reporter molecule was Thioflavin T (ThT) (Sigma, Cat. No. T-3516, Jerusalem, Israel), a benzothiazole dye that undergoes a shift in its excitation spectrum (from 340 nm to 450 nm) when interacting with β-sheet amyloid structures. The resultant ThT fluorescence signal is proportional to the amount of amyloid formed (LeVine, 1993). A stock solution of Aβ in dimethylsulfoxide (DMSO) was diluted with phosphate-buffered saline (PBS) containing 0.02% Na-Azid to a final concentration of 162 μM and 20 μl of the diluted Aβ solution was placed in each well of a 96 multiwell plate (Nunc, Roskilde, Denmark). After 20 minutes of pre-incubation at room temperature of the Aβ samples (20 μl), 80 μl of 1.25 μM ThT in 50 mM glycine buffer, pH 8.5, was added. Incubation was with shaking at 200 rpm for 6 to 8 hours at the noted temperatures. Fluorescence was measured continuously or at 30-40 minute intervals, using a Spectro-fluorometer (Tecan, Maennedorf, Switzerland). Excitation and emission wavelengths were 450 nm and 485 nm, respectively. Enhancement of the fibrillation process by the different combinations of water-dissolved cholinesterases and peptides mimicking fragments thereof, was evaluated by dissecting the time curves into two stages: the lag before the onset of the fluorescence increase (the nucleation process) and the average rate of fluorescence increase at several time points (rate of fibrils formation). Statistics analysis was performed using the Kaleidagraph Software (Reading, Pa., USA).
BChE attenuates amyloid fibrils formation—Amyloid fibril (Aβ) formation was quantified by measuring changes in ThT fluorescence. As predicted, Aβ fibrils were spontaneously formed in vitro provided that the Aβ peptide was present above 5 μM. […] Reactions were performed in the absence or presence of increasing concentrations of purified human BChE (SEQ ID NO:2; FIG. 1a), recombinant ACHE-S (SEQ ID NO:6; FIG. 1b) or both (FIGS. 1c and d). […] Due to the complex kinetics of the fibril formation process the apparent rate of change in ThT fluorescence was repeatedly determined during the exponential phase of increase in its signal (at 390±20 minutes). […] In contrast, addition of similar doses of AChE to Aβ, predictably shortened by half the lag time prior to fibril formation, again in a dose dependent manner (FIG. 1e). The lag period therefore decreased from 240 minutes to 150 minutes and the maximal rate of fibril formation increased from 0.057 to 0.116 fluorescence units (FU)/min for Aβ alone as compared to Aβ in the presence of 0.36 μM AChE-S (FIG. 1b and Table 7, hereinbelow). When increasing doses of hBChE were added to a combined mix of 33 μM Aβ with 0.36 μM AChE-S, a dose-dependent interference with the fibril formation process was observed (FIG. 1c and 2a). Thus, BChE is capable of reducing the rate of fibrillation of Aβ alone, or Aβ which is formed in the presence of AChE.

[1] = Rate of hydrolysis of AThCh/BThCh by cholinesterases; assay type: biochemical; conditions: for Rate of hydrolysis of AThCh/BThCh: average of three experiments
Description: BChE biochemistry—Serum cholinesterase catalytic activity measurements are based on a spectrophotometric method adapted to a microtiter plate assay. Butyrylthiocholine (BTCh, Sigma) hydrolysis rates are measured following 20 minutes incubation with 5×10^−5 M tetraisopropyl pyrophosphoramide (iso-OMPA, Sigma), a specific BChE inhibitor or 10^−5 M 1,5-bis(4-allyldimethylammoniumphenyl) pentan-[…] dibromide (BW284c51, Sigma, A9013), a specific AChE inhibitor. Addition of both inhibitors reduces hydrolysis to the rate of spontaneous hydrolysis measured in control reactions lacking enzyme or substrate, attesting to the specificity of these serum activities. Readings at 405 nm are repeated at 2-minute intervals for 20 minutes. Non-enzymatic hydrolysis of substrate is subtracted from the total rate of hydrolysis. Enzyme activity is calculated using the molar extinction coefficient for 5-thio-2-nitrobenzoate [13,600 M^−1×cm^−1] [Ellman, G. L. et al. (1961) Biochem. Pharmacol. 7:88-95].
In addition, BChE is soluble and thus accessible to circulating ACh. Moreover, the substrate of preference of BChE is different than that of ACHE. Thus, over the range of substrate concentrations 0.1 to 25 mM, the ratio of hydrolysis of AThCh relative to BThCh differs between the enzymes (Table 8, hereinbelow).

Amylin = target: T2, Amylin (Homo sapiens, UniProt P10997); experiment: Amylin amyloid fibril formation, Thioflavin T fluorescence; assay type: biochemical; conditions: 20 μM amylin
T2 sequence (P10997 34-70 limits assumed): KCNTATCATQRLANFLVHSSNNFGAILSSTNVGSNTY
Description: FIG. 6 is a graph illustrating the effect of BChE in preventing amylin amyloid fibril formation. Amylin at a concentration of 20 μM was incubated with Thiofalvin T (at a concentration of 1 μM) and the formation of amyloid fibril was measured by following the Thiofalvin T fluorescence intensity [excitation (450 nm); emission (485 nm)] in the presence or absence of 0.24 μM BChE (purified from pooled human plasma). Note that the addition of BChE increases the lag time for amylin fibrillation from 30 minutes to 110 minutes.
To test the ability of BChE to prevent amylin amyloid fibril formation, the present inventors have tested the rate of amylin fibrillation (at a concentration of 20 μM) in the presence or absence of 0.24 μM BChE (purified from pooled human serum). As is shown in FIG. 6, BChE completely attenuated the formation of amylin fibrils for 100 minutes, and increased the lag time of amyloid fibril formation from 30 minutes to 110 minutes.

[2] = single C-terminal substitution (A539T); Bartels et al., 1992; cited from earlier work

Row | Molecule | effect on Aβ fibril formation (in words) (Aβ (1-40) peptide; ThT fluorescence) | Lag (fold change) (Aβ (1-40) peptide) | Rate (fold change) (Aβ (1-40) peptide) | Rate of hydrolysis of AThCh/BThCh ([1]; Substrate 0.1 mM) | Rate of hydrolysis of AThCh/BThCh ([1]; Substrate 25.0 mM) | also measured
1 | B1 | prolonged the lag and reduced the apparent rate of amyloid formation | 1.4* fold change | 0.3* fold change | 0.45 | 0.20 | time for which fibril formation was totally prevented (Aβ (1-40) peptide; 0.4 μM BChE added to 33 μM Aβ): over 600 minutes; concentration needed for complete attenuation of Aβ fibrillation (Aβ (1-40) peptide; attenuation for 400 minutes of incubation, ThT fluorescence): 30000 ng/mL; BChE capacity to hydrolyze ACh, fold lower than that of AChE ([1]; increased / high ACh concentrations (as in 25 mM)): 12 fold; BChE capacity of ACh hydrolysis in the circulation, fold lower than that of AChE ([1]; normal circumstances, low ACh): ca. 80 fold; time for which formation of amylin fibrils was completely attenuated (Amylin; 0.24 μM BChE): 100 min; lag time of amylin amyloid fibril formation (Amylin; 1 μM ThT, 0.24 μM BChE (without BChE 30 minutes)): 110 min
2 | B2 | – | 0.6* fold change | 2.1* fold change | – | – | maximal rate of fibril formation (Aβ (1-40) peptide; Aβ in the presence of 0.36 μM AChE-S (Aβ alone 0.057)): 0.116 FU/min; lag period prior to fibril formation (Aβ (1-40) peptide; Aβ in the presence of 0.36 μM AChE-S (Aβ alone 240 minutes)): 150 min
3 | B3 | no significant effect on amyloid formation | 1.5 fold change | 0.7 fold change | – | – | –
4 | B4 | – | – | – | – | – | reduction in hydrolytic activity [2]: 30%
5 | B5 | – | – | – | 120 | 7.2 | AThCh hydrolysis ratio difference of AChE:BChE ([1]; at 0.1 mM substrate): 245 fold; AThCh hydrolysis ratio difference of AChE:BChE ([1]; at 25 mM substrate): 36 fold
